The target in series [1] is pUL77 (Human cytomegalovirus (cosmid pCM1075; strain not stated)) (UniProt P16726). Put plainly: pull-down. The note with it: scale: binding efficiency.
The target of series [2] is in vitro translated, radiolabeled pUL77 (wild type, from pcDNA-UL77) (human cytomegalovirus (HCMV)) (UniProt P16726). Description: cross-linking; in vitro translated, radiolabeled protein in PBS, 0.01% glutaraldehyde, 8% SDS-PAGE, autoradiography.
The target in series [3] is purified recombinant pUL77 (rpUL77) (human cytomegalovirus (HCMV)) (UniProt P16726). Put plainly: cross-linking.

Substance bio-250 bp showed a binding signal in series [1] of 0.5.
Take bio-500 bp: the binding signal in series [1] came out at 2.2.
In series [1], bio-1000 bp showed a binding signal of 4.9.
With “in vitro translated, radiolabeled pUL77 (wild type, from pcDNA-UL77) (from UniProt P16726 1-642) (natural protein)”, the stoichiometry N in series [2] came out at 2.
For the substance “purified recombinant pUL77 (rpUL77) (from UniProt P16726 1-642) (natural protein)”, the stoichiometry N in series [3] was determined as 2.

The term stoichiometry N denotes a count of units in the complex or per binding partner.
